Results on one protein are retold here after publication PMC8563730, “CryoEM structure of the outer membrane secretin channel pIV from the f1 filamentous bacteriophage” (Nature Communications, 2021).

This data set concerns the molecule itself. Description: cryo-EM structure; purified f1pIV (~0.7 mg/ml) in 1% CHAPS, 25 mM Na HEPES pH 8.0, 500 mM NaCl, 0.5 mM EDTA, on graphene oxide-coated lacey carbon grids; 2D class averages and a 3D reconstruction with C15 symmetry, 2.7 Å.

B1: f1 pIV secretin (His-tagged f1pIV with the stabilizing S318I mutation) (natural protein, bacteriophage f1, UniProt P03666 22-426, looked up)
chain: QVIEMNNSSLRDFVTWYSKQTGESVIVSPDVKGTVTVYSSDVKPENLRDFFISVLRANNFDMVGSIPSIIQKYNPNNQDYIDELPSSDNQEYDDNSAPSGGFFVPQNDNVTQTFKINNVRAKDLIRVVELFVKSNTSKSSNVLSVDGSNLLVVSAPKDILDNLPQFLSTVDLPTDQILIEGLIFEVQQGDALDFSFAAGSQRGTVAGGVNTDRLTSVLSSAGGSFGIFNGDVLGLSVRALKTNSHSKILSVPRILTLSGQKGSISVGQNVPFITGRVTGESANVNNPFQTVERQNVGISMSVFPVAMAGGNIVLDITIKADSLSSSTQASDVITNQRSIATTVNLRDGQTLLLGGLTDYKNTSQDSGVPFLSKIPLIGLLFSSRSDSNEESTLYVLVKATIVRAL
notes: pIV secretin (gene IV protein, virion export protein) of filamentous bacteriophage f1; mature protein of 405 residues (N0 1-88, linker 89-107, N3 108-172, linker 173-174, secretin domain 175-405); S318 is residue 339 of the precursor (318 + 21 signal residues); also called f1pIV secretin channel; copies: 15
With B1, the “stoichiometry N” value is 15.

Broadly, the stoichiometry N is a count of units in the complex or per binding partner.
